Changes are numbered by the printed parent chain.
T1: dog iRhom2 full length wild type, C-terminally tagged with 3 consecutive copies of the T7 epitope (dog, UniProt Q00M95 1-827)
T1 construct: whole, on cells; also called Dog-iR2-FL-WT-T7
T1 sequence: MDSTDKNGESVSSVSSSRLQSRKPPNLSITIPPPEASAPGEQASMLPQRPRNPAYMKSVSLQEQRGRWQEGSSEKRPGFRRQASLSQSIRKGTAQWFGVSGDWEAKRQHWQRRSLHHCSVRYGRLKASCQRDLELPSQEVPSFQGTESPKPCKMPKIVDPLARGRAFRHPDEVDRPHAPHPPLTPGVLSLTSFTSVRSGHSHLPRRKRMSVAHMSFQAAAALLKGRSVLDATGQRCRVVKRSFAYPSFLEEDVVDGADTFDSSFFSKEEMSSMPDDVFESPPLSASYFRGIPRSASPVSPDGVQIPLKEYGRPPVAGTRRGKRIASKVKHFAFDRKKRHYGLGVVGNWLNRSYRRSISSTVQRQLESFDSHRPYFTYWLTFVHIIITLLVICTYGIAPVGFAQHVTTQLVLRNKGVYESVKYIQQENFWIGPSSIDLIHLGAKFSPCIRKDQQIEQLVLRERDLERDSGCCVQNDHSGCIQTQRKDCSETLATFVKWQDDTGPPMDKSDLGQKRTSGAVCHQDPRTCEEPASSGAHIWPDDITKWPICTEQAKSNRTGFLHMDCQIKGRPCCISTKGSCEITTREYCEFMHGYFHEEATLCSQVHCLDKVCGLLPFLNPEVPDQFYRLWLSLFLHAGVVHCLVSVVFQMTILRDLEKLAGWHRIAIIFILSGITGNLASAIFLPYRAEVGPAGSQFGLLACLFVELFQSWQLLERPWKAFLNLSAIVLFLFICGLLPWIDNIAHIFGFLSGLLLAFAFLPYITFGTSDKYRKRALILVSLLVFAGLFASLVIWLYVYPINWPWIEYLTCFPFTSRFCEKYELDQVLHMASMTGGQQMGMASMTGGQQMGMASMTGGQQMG

T2: human iRhom2 (inactive rhomboid protein 2, isoform 1), endogenously expressed on human cells (human, UniProt Q6PJF5 1-856)
T2 sequence: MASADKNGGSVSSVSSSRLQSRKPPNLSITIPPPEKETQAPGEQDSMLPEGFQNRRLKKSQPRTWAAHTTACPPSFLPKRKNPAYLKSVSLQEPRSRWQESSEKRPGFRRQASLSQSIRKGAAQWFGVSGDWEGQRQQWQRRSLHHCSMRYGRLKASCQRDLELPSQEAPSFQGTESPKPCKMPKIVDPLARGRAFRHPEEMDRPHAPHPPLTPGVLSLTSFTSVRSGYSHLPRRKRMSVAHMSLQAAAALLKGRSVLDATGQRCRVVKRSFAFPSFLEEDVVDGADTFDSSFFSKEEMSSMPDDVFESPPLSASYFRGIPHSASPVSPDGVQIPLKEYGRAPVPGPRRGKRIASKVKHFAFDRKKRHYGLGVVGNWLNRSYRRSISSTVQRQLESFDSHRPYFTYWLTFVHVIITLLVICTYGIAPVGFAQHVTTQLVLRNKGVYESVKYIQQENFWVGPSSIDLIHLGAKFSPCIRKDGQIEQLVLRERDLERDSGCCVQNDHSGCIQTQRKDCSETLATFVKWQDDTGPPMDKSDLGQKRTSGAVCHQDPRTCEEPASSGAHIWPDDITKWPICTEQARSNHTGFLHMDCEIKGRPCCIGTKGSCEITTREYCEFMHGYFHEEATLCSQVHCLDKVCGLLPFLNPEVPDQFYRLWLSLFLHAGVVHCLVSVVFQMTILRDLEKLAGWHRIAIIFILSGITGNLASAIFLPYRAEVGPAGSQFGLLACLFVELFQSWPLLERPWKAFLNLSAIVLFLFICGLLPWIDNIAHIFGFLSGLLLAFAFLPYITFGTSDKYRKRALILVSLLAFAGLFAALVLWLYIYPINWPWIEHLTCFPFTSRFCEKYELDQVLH

B1: antibody 44 (antibody, V domains shown)
VH: QVTLKESGPGILQPSQTLSLTCSFSGFSLSTFGMGVGWIRQPSEKGLEWLAHIWWDDDKYYNPALKSRLTISKDTSKNQIFLKITNVDTAETATYYCSRIGNYGSNYWYFDVWGTGTTVTVSS
VL: QIVLTQSPAVMSASPGEKVTMTCTASSSVYYMYWYQQTPGSSPRLLIYDTSNLASGVPVRFSGSGSGTSYSLTISRMEAEDAATYYCQQWNTYPLTFGAGTKLELK
notes: Mouse IgG, kappa light chain; also called clone #44; m44
B2: antibody 42 (antibody, V domains shown)
VH: B1 VH with F24L, M34R, E44G, D58E, I80V, K83R, T85A, E91D, S98A, G101Q
VL: LIVLTQSPAIMSASPGEKVTMTCGATSRISYMFWYQQKPGSSPRVLIYDTSNLASGVPVRFSGSGSGTSYSLTISRVEAEDVATYYCQQWNSYPLTFGAGTKLELK
notes: Mouse IgG, kappa light chain; also called clone #42; m42
B3: antibody 22 (antibody, V domains shown)
VH: B1 VH with E44G, D58E, P63S, D74A, I80V, T85A, E91D, S98A, G101S, D111N
VL: B1 VL with I2V, V10L, T24S, S26G, Y30S, T38K, L45V, V59A, S62T, T92S
notes: Mouse IgG, kappa light chain; also called clone #22; m22

What was measured:
[1] = target: T1, dog iRhom2 full length wild type, …; assay: FACS, MEF-DKO-Dog-iR2-FL-WT-T7 cells
Experimental: In brief, immortalized MEF-DKO-EV control cells, MEF-DKO-rhesus-iR2-FL-WT-T7 cells, MEF-DKO-cyno-iR2-FL-WT-T7 cells, MEF-DKO-dog-iR2-FL-WT-T7 cells and MEF-DKO-rabbit-iR2-FL-WT-T7 cells, as well as their respective iRhom1 counterparts, were harvested with 10 mM EDTA in PBS, washed and resuspended in FACS buffer (PBS, 3% FBS, 0.05% sodium azide), and seeded in Nunc U-bottom 96-well plates (Thermo Fisher Scientific, USA) at approximately 3×10⁵ cells per well. To pellet cells and remove supernatants, the plates were centrifuged at 1,500 rpm and 4° C. for 3 minutes. For primary staining, cells were resuspended in 100 μl per well of either FACS buffer alone (controls), mouse monoclonal anti-T7 IgG (Merck Millipore, USA) at 3 μg/ml FACS buffer or the antibodies of the present disclosure also at 3 μg/ml FACS buffer and incubated on ice for 1 hour. Afterwards, plates were centrifuged at 1,500 rpm and 4° C. for 3 minutes and washed twice with 200 μl per well of FACS buffer. For secondary staining, cells were spun down and resuspended in 100 μl per well of PE-conjugated goat anti-mouse IgG F(ab′)2 detection fragment (Dianova, Germany) diluted 1:100 in FACS buffer. Protected from light, the cell suspensions were incubated on ice for 1 hour. Plates were then centrifuged at 1,500 rpm and 4° C. for 3 minutes and washed three times with 200 μl per well of FACS buffer. Finally, cells were resuspended in 150 μl per well of FACS buffer and analyzed using a BD Accuri™ C6 Plus flow cytometer (Becton Dickinson, Germany).

[2] = target: T2, human iRhom2 (inactive rhomboid protein …); assay: cell-based or functional assay

Row | Binder | binding result [1] | inhibition of LPS-induced release of TNFα from THP-1 cells, 10 µg/ml, antibody purified from hybridoma [2] [% inhibition] | inhibition of LPS-induced release of TNFα from THP-1 cells, recombinant antibody [2] [% inhibition] | inhibition of PMA-induced release of HB-EGF from THP-1 cells, 3 µg/ml [2] [% inhibition] | inhibition of PMA-induced release of HB-EGF from U-937 cells [2] [% inhibition] | inhibition of PMA-induced release of IL-6R from THP-1 cells, 1 µg/ml [2] [% inhibition] | inhibition of PMA-induced release of IL-6R from U-937 cells, 1 µg/ml [2] [% inhibition] | inhibition of PMA-induced release of IL-6R from U-937 cells, 3 µg/ml [2] [% inhibition] | inhibition of PMA-induced release of TGFα from PC3 cells, 1 µg/ml [2] [% inhibition] | inhibition of PMA-induced release of TNFα from U-937 cells, 1 µg/ml [2] [% inhibition] | inhibition of PMA-induced release of TNFα from U-937 cells, 3 µg/ml [2] [% inhibition] | inhibition of LPS-induced release of TNFα from PBMCs of healthy donors, 1 µg/ml [2] [% inhibition] | inhibition of LPS-induced release of TNFα from human macrophages of healthy donors [2] [% inhibition] | inhibition of PMA-induced release of HB-EGF from PBMCs of healthy donors, 1 µg/ml [2] [% inhibition] | inhibition of PMA-induced release of IL-6R from PBMCs of healthy donors, 1 µg/ml [2] [% inhibition]
1 | B1 | binds | 32.2 | 73.2 | 67.5 | 100 | 73 | 71.8 | 82 | 14.1 | 76.5 | 86.3 | – | – | – | –
2 | B2 | binds | 76.7 | 75.9 | 76.6 | 104 | 85.9 | 80.8 | 84.4 | 14.3 | 94.5 | 94.1 | 77 | 93.2 | 77.6 | 85
3 | B3 | binds | 78.8 | 78.4 | 77.7 | 101 | 67.4 | 74.5 | 79 | 12.7 | 86.1 | 93.1 | 72.8 | 78.8 | 56.5 | 79.3

From patent US20240174744A1 (SCIRHOM, published 2024)
